Assay results reported in publication PMC4961225, “The Molecular Basis for Ubiquitin and Ubiquitin-like Specificities in Bacterial Effector Proteases” (Molecular Cell, 2016).

Molecular target: T1, ubiquitin (uniformly 15N-labeled Ub) (UniProt P0CG48 1-76)
T1 construct: also called 15N-Ub
Assay: NMR titration; uniformly 15N-labeled Ub observed (1H,15N-HSQC TROSY; 80 μM Ub in Figure 6), unlabeled partner added; 25°C
Conditions: both partners purified

B1: SseL (aa 24–340) (domain or fragment)
chain: VSDEALTLLFSAVENGDQNCIDLLCNLALRNDDLGHRVEKFLFDLFSGKRTGSSDIDKKINQACLVLHQIANNDITKDNTEWKKLHAPSRLLYMAGSATTDLSKKIGIAHKIMGDQFAQTDQEQVGVENLWCGARMLSSDELAAATQGLVQESPLLSVNYPIGLIHPTTKENILSTQLLEKIAQSGLSHNEVFLVNTGDHWLLCLFYKLAEKIKCLIFNTYYDLNENTKQEIIEAAKIAGISESDEVNFIEMNLQNNVPNGCGLFCYHTIQLLSNAGQNDPATTLREFAENFLTLSVEEQALFNTQTRRQIYEYSLQ
Does B1 bind?
Result: binds
